Ratio, Km and kcat data for three molecules are collected here from ChEMBL document CHEMBL1157347, “Chemoenzymatic syntheses of prenylated aromatic small molecules using Streptomyces prenyltransferases with relaxed substrate specificities” (Bioorg Med Chem, 2008).

Data set [1] concerns the target T1, Prenyltransferase homolog (Streptomyces coelicolor A3) (UniProt Q9FBZ2).
T1 sequence (whole entry): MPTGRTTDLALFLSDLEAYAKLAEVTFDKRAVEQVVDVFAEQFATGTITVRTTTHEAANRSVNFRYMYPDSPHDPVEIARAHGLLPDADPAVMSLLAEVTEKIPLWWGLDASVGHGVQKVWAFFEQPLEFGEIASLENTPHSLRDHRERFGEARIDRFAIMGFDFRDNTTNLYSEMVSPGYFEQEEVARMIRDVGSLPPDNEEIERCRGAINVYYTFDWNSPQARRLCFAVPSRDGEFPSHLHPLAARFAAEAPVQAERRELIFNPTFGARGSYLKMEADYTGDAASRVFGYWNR
In words: Ratio of Kcat to Km of Streptomyces coelicolor A3(2) prenyltransferase assessed as formation of 7-(3,7-Dimethyl-octa-2,6-dienyloxy)-5-hydroxy-2-(4-hydroxy-phenyl)-chroman-4-one.

Data set [2] concerns the target T1, Prenyltransferase homolog (Streptomyces coelicolor A3). Description: Ratio of Kcat to Km of Streptomyces coelicolor A3(2) prenyltransferase assessed as formation of 6-(3,7-Dimethyl-octa-2,6-dienyl)-5,7-dihydroxy-2-(4-hydroxy-phenyl)-chroman-4-one.
Data set [3] has as its system NphB prenyltransferase (Streptomyces sp. CL190). Description: Ratio of Kcat to Km of Streptomyces sp. CL190 NphB prenyltransferase assessed as formation of 2-(3,7-dimethylocta-2,6-dienyl)naphthalene-1,6-diol.
Data set [4] has the same test system. In words: Ratio of Kcat to Km of Streptomyces sp. CL190 NphB prenyltransferase assessed as formation of 4-(3,7-dimethylocta-2,6-dienyl)naphthalene-1,6-diol.
Data set [5] has the same test system. Description: Ratio of Kcat to Km of Streptomyces sp. CL190 NphB prenyltransferase assessed as formation of 5-(3,7-dimethylocta-2,6-dienyl)naphthalene-1,6-diol.
Data set [6] has as its target NphB prenyltransferase (Streptomyces sp. CL190). In words: Activity for Streptomyces sp. CL190 prenyltransferase NphB assessed as formation of 5-(3,7-dimethylocta-2,6-dienyl)naphthalene-1,6-diol.
Data set [7] has the same target. In words: Activity for Streptomyces sp. CL190 NphB prenyltransferase assessed as formation of 4-(3,7-dimethylocta-2,6-dienyl)-5-pentylbenzene-1,3-diol.
For data set [8] the target is unchanged. Description: Activity for Streptomyces sp. CL190 NphB prenyltransferase assessed as formation of 4-(3,7-dimethylocta-2,6-dienyl)naphthalene-1,6-diol.
Substrate in data set [9]: O=C1C[C@@H](c2ccc(O)cc2)Oc2cc(O)cc(O)c21
In words: Activity for Streptomyces coelicolor A3(2) prenyltransferase assessed as formation of 6-(3,7-Dimethyl-octa-2,6-dienyl)-5,7-dihydroxy-2-(4-hydroxy-phenyl)-chroman-4-one.

Data set [10] has as its target NphB prenyltransferase (Streptomyces sp. CL190). In words: Activity for Streptomyces sp. CL190 NphB prenyltransferase assessed as formation of 7-(3,7-dimethylocta-2,6-dienyloxy)-3-(4-hydroxyphenyl)-2,3-dihydrochromen-4-one.
The target is the same in data set [11]. Description: Activity for Streptomyces sp. CL190 prenyltransferase NphB assessed as formation of 1-(3,7-dimethylocta-2,6-dienyl)naphthalene-2,7-diol.
Data set [12] has the same target. Description: Activity for Streptomyces sp. CL190 NphB prenyltransferase assessed as formation of 5-(4-hydroxystyryl)-2-((E)-3,7-dimethylocta-2,6-dienyl)benzene-1,3-diol.
Data set [13] shares this target. Description: Activity for Streptomyces sp. CL190 prenyltransferase NphB assessed as formation of 6-(3,7-Dimethyl-octa-2,6-dienyl)-5,7-dihydroxy-2-(4-hydroxy-phenyl)-chromen-4-one.
Data set [14] shares this target. Description: Activity for Streptomyces sp. CL190 prenyltransferase NphB assessed as formation of 2-(3,7-dimethylocta-2,6-dienyl)naphthalene-1,6-diol.
Data set [15] has the same target. In words: Activity for Streptomyces sp. CL190 prenyltransferase NphB assessed as formation of 7-(3,7-dimethylocta-2,6-dienyloxy)-5-hydroxy-3-(4-hydroxyphenyl)-2,3-dihydrochromen-4-one.
Substrate in data set [16]: O=C1C[C@@H](c2ccc(O)cc2)Oc2cc(O)cc(O)c21
Description: Activity for Streptomyces coelicolor A3(2) prenyltransferase assessed as formation of 7-(3,7-Dimethyl-octa-2,6-dienyloxy)-5-hydroxy-2-(4-hydroxy-phenyl)-chroman-4-one.

The target of data set [17] is NphB prenyltransferase (Streptomyces sp. CL190). Description: Activity for Streptomyces sp. CL190 prenyltransferase NphB assessed as formation of 7-(3,7-Dimethyl-octa-2,6-dienyloxy)-5-hydroxy-2-(4-hydroxy-phenyl)-chromen-4-one.
Data set [18] has the same target. In words: Activity for Streptomyces sp. CL190 NphB prenyltransferase assessed as formation of 2-(3,7-dimethylocta-2,6-dienyl)-5-pentylbenzene-1,3-diol.

Take `O=C1C[C@@H](c2ccc(O)cc2)Oc2cc(O)cc(O)c21`: the Ratio in data set [1] came out at 1.4; in data set [2], 0.31.
For `Oc1ccc2c(O)cccc2c1`, the Ratio in [3] was determined as 2.2; in data set [4] it was 0.3; in [5] it was 7.7.

B1: Prenyltransferase homolog (Streptomyces coelicolor A3), Q9FBZ2 (protein)
chain: T1 sequence (whole entry)
The term Km denotes the concentration of substrate that gives half-maximal velocity. For orientation: kcat means the maximal rate divided by the concentration of active sites. With B1, the Km in data set [6] turned out to be 540 µM; in data set [7] it was 640 µM; in data set [8], 1050 µM; in [9] it was 2100 µM; in data set [10], 290 µM; in data set [11], 340 µM. In addition, the Km in data set [12] stood at 440 µM; in data set [13] it was 530 µM; in data set [14], 510 µM; in data set [15], 330 µM; in data set [16] it was 1600 µM; in data set [17] it was 580 µM. For the same molecule, the Km in data set [18] stood at 520 µM. Moreover, the kcat turned out to be 0.0042 s⁻¹ in data set [6]; 4.3e-05 s⁻¹ in data set [7]; 0.00032 s⁻¹ in data set [8]; 0.00017 s⁻¹ in [10]; 0.00047 s⁻¹ in [11]; 5.3e-05 s⁻¹ in data set [12]. In addition, the kcat stood at 0.0006 s⁻¹ in [13]; 0.0011 s⁻¹ in data set [14]; 0.00048 s⁻¹ in [15]; 0.00033 s⁻¹ in data set [17]; 2.7e-05 s⁻¹ in data set [18].
